We go through 8 molecules from PMC6100179, “Kinetic Basis of the Bifunctionality of SsoII DNA Methyltransferase”.

The target of data set [1] is T1, M.SsoII (monomer on DNA) (UniProt P34879 1-379).
T1 sequence: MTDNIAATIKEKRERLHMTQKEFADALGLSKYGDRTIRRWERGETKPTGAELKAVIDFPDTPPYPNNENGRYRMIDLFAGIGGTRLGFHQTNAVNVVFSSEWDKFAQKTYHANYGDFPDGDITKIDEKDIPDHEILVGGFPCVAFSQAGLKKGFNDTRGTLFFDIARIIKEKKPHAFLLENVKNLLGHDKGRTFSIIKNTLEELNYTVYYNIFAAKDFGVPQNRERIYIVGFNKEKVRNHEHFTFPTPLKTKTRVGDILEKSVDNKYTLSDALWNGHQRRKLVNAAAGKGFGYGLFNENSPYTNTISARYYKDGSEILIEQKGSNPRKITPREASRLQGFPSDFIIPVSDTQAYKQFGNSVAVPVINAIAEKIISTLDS
The data set is described as follows: stopped-flow fluorescence anisotropy; 100 uM AdoMet; k1 386 uM-1 s-1, k-1 154 s-1, k2 0.68 s-1, k-2 6.5 s-1; EMSA: 50 mM Tris-HCl pH 7.5, 100 mM NaCl, 5 mM beta-mercaptoethanol, 0.1 mg/mL BSA, 25% glycerol, 100 uM AdoHcy, 37 C then room temperature, 2.5 nM DNA; stopped-flow: 50 mM Tris-HCl pH 7.5, 100 mM NaCl, 5 mM beta-mercaptoethanol, 25 C, 100 nM DNA. As to conditions: protein: recombinant; tags: N-terminal His-tag MRGS(H)6TDPLETC; label: TAMRA (position 21).

Data set [2] addresses T1, M.SsoII (monomer on DNA). The data set is described as follows: stopped-flow fluorescence anisotropy; 100 uM AdoHcy; k1 226 uM-1 s-1, k-1 158 s-1, k2* 0.22 s-1, k-2* 0.50 s-1; EMSA: 50 mM Tris-HCl pH 7.5, 100 mM NaCl, 5 mM beta-mercaptoethanol, 0.1 mg/mL BSA, 25% glycerol, 100 uM AdoHcy, 37 C then room temperature, 2.5 nM DNA; stopped-flow: 50 mM Tris-HCl pH 7.5, 100 mM NaCl, 5 mM beta-mercaptoethanol, 25 C, 100 nM DNA. The settings on record: protein: recombinant; tags: N-terminal His-tag MRGS(H)6TDPLETC; label: TAMRA (bottom 33 or 35).

Data set [3] deals with T1, M.SsoII (monomer on DNA). The data set is described as follows: stopped-flow fluorescence anisotropy; 100 uM AdoHcy; k1 181 uM-1 s-1, k-1 143 s-1, k2* 0.40 s-1, k-2* 1.5 s-1; EMSA: 50 mM Tris-HCl pH 7.5, 100 mM NaCl, 5 mM beta-mercaptoethanol, 0.1 mg/mL BSA, 25% glycerol, 100 uM AdoHcy, 37 C then room temperature, 2.5 nM DNA; stopped-flow: 50 mM Tris-HCl pH 7.5, 100 mM NaCl, 5 mM beta-mercaptoethanol, 25 C, 100 nM DNA. As to conditions: protein: recombinant; tags: N-terminal His-tag MRGS(H)6TDPLETC; label: TAMRA (top 25 or bottom 33/35).

Data set [4] concerns the target T2, M.SsoII (two subunits on DNA) (UniProt P34879 1-379).
T2 sequence: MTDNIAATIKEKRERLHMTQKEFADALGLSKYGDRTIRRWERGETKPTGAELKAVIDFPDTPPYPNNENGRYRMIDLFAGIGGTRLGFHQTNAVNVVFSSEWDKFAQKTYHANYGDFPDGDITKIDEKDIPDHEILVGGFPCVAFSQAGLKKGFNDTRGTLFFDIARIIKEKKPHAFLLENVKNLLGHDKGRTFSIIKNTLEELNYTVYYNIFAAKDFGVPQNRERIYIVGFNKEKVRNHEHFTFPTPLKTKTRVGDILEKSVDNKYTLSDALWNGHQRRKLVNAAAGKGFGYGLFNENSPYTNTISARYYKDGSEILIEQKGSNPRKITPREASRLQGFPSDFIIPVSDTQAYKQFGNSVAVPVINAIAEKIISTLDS
The data set is described as follows: EMSA; 100 uM AdoHcy; C1 and C2; EMSA: 50 mM Tris-HCl pH 7.5, 100 mM NaCl, 5 mM beta-mercaptoethanol, 0.1 mg/mL BSA, 25% glycerol, 100 uM AdoHcy, 37 C then room temperature, 2.5 nM DNA; stopped-flow: 50 mM Tris-HCl pH 7.5, 100 mM NaCl, 5 mM beta-mercaptoethanol, 25 C, 100 nM DNA. As to conditions: protein: recombinant; tags: N-terminal His-tag MRGS(H)6TDPLETC; chain copies: 2; label: TAMRA (position 5).

In data set [5] the target is T1, M.SsoII (monomer on DNA). The data set is described as follows: stopped-flow fluorescence anisotropy; 100 uM AdoMet; k1 390 uM-1 s-1, k-1 88 s-1, k2 1.13 s-1, k-2 9.6 s-1; EMSA: 50 mM Tris-HCl pH 7.5, 100 mM NaCl, 5 mM beta-mercaptoethanol, 0.1 mg/mL BSA, 25% glycerol, 100 uM AdoHcy, 37 C then room temperature, 2.5 nM DNA; stopped-flow: 50 mM Tris-HCl pH 7.5, 100 mM NaCl, 5 mM beta-mercaptoethanol, 25 C, 100 nM DNA. The settings on record: protein: recombinant; tags: N-terminal His-tag MRGS(H)6TDPLETC; label: TAMRA (position 5).

Data set [6] deals with T1, M.SsoII (monomer on DNA). The data set is described as follows: stopped-flow fluorescence anisotropy; 100 uM AdoHcy; k1 352 uM-1 s-1, k-1 71 s-1, k2 2.30 s-1, k-2 12.8 s-1; EMSA: 50 mM Tris-HCl pH 7.5, 100 mM NaCl, 5 mM beta-mercaptoethanol, 0.1 mg/mL BSA, 25% glycerol, 100 uM AdoHcy, 37 C then room temperature, 2.5 nM DNA; stopped-flow: 50 mM Tris-HCl pH 7.5, 100 mM NaCl, 5 mM beta-mercaptoethanol, 25 C, 100 nM DNA. The settings on record: protein: recombinant; tags: N-terminal His-tag MRGS(H)6TDPLETC; label: TAMRA (internal, on dU C5, position 5).

In data set [7] the target is T2, M.SsoII (two subunits on DNA). The data set is described as follows: EMSA; 100 uM AdoHcy; cooperative, C2 much more than C1; EMSA: 50 mM Tris-HCl pH 7.5, 100 mM NaCl, 5 mM beta-mercaptoethanol, 0.1 mg/mL BSA, 25% glycerol, 100 uM AdoHcy, 37 C then room temperature, 2.5 nM DNA; stopped-flow: 50 mM Tris-HCl pH 7.5, 100 mM NaCl, 5 mM beta-mercaptoethanol, 25 C, 100 nM DNA. The settings on record: protein: recombinant; tags: N-terminal His-tag MRGS(H)6TDPLETC; chain copies: 2; label: TAMRA (internal, on dU C5, position 5).

Data set [8] has the same target. The data set is described as follows: EMSA; 100 uM AdoHcy; C2* above 2:1 protein/DNA, second molecule presumably nonspecific; EMSA: 50 mM Tris-HCl pH 7.5, 100 mM NaCl, 5 mM beta-mercaptoethanol, 0.1 mg/mL BSA, 25% glycerol, 100 uM AdoHcy, 37 C then room temperature, 2.5 nM DNA; stopped-flow: 50 mM Tris-HCl pH 7.5, 100 mM NaCl, 5 mM beta-mercaptoethanol, 25 C, 100 nM DNA. As to conditions: protein: recombinant; tags: N-terminal His-tag MRGS(H)6TDPLETC; chain copies: 2; label: TAMRA.

B1: 60reg-4 (dsDNA)
DNA 1: GAAAGTTTTTTCATGCACGTTCATAATTGGAATCAAAACAGGACAAATTGTCCTAAAACC
DNA 2: GGTTTTAGGACAATTTGTCCTGTTTTGATTCCAATTATGAACGTGCATGAAAAAACTTTC
On to B1, for which the binding result in data set [1] was “binds”.

B2: 60met-mC (dsDNA)
DNA 1: GACTTACAGTTGATAGTATGAAGCTAGAGCCAGGTTGGCAGCATTCTACTCATGTACTTG
DNA 2: CAAGTACATGAGTAGAATGCTGCCAACCTGGCTCTAGCTTCATACTATCAACTGTAAGTC
modifications: 5-methylcytosine in top strand of methylation site
As for B2, the binding result in data set [2] is reported as “binds”.

B3: 60met (dsDNA)
DNA 1: GACTTACAGTTGATAGTATGAAGCTAGAGCCAGGTTGGCAGCATTCTACTCATGTACTTG
DNA 2: CAAGTACATGAGTAGAATGCTGCCAACCTGGCTCTAGCTTCATACTATCAACTGTAAGTC
With B3, in data set [3], the binding result is listed as “binds”.

B4: 60reg-2 (dsDNA)
DNA 1: ACGTTCATAATTGGAATCTTTTCAGGACAAATTGTCCTTTTTCCAACACTTAATTCTGGT
DNA 2: ACCAGAATTAAGTGTTGGAAAAAGGACAATTTGTCCTGAAAAGATTCCAATTATGAACGT
As to B4, the binding result in data set [4] and in data set [5] was “binds” each time.

B5: 60reg-3 (dsDNA)
DNA 1: ACGTTCATAATTGGAATCTGCTCAGGACAAATTGTCCTTGCTCCAACACTTAATTCTGGT
DNA 2: ACCAGAATTAAGTGTTGGAGCAAGGACAATTTGTCCTGAGCAGATTCCAATTATGAACGT
On to B5, for which the binding result in data set [4] is “binds”.

B6: 60reg-1 (dsDNA)
DNA 1: ACGTTCATAATTGGAATCAAAACAGGACAAATTGTCCTAAAACCAACACTTAATTCTGGT
DNA 2: ACCAGAATTAAGTGTTGGTTTTAGGACAATTTGTCCTGTTTTGATTCCAATTATGAACGT
On to B6, for which the binding result in data set [6] and in data set [7] was “binds” throughout.

B7: 60half-1 (dsDNA)
DNA 1: ACGTTCATAATTGGAATCAAAACAGGACAAACATTATCAAAACCAACACTTAATTCTGGT
DNA 2: ACCAGAATTAAGTGTTGGTTTTGATAATGTTTGTCCTGTTTTGATTCCAATTATGAACGT
On to B7, for which the binding result in data set [8] is “binds”.

B8: 60half-2 (dsDNA)
DNA 1: ACGTTCATAATTGGAATCAAAACCATTATCATTGTCCTAAAACCAACACTTAATTCTGGT
DNA 2: ACCAGAATTAAGTGTTGGTTTTAGGACAATGATAATGGTTTTGATTCCAATTATGAACGT
As to B8, the binding result in data set [8] is “binds”.
